Numbering of substitutions follows the chain as printed. In names and notes the source's numbering stands.

The target in assay [1] is T1, Human CD137 on Jurkat cells (human, UniProt Q07011 24-255).
T1 construct: whole, on cells; also called full-length human CD137-expressing Jurkat cell line; NF-kB-Luc2/4-1BB Jurkat
Nature of the assay: flow cytometry, Jurkat cells.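 Further: binding of antibody-containing supernatants to NF-kB-Luc2/4-1BB Jurkat cells, detected by flow cytometry with a PE-labelled anti-human IgG-Fc secondary antibody.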 A general note: Flow cytometry measures light scatter and fluorescence of single cells or particles in a stream.
Experimental: Briefly, HTP supernatants containing recombinant IgG1 (KO) antibodies, were assayed by flow cytometry for binding to the NF-kB-Luc2/4-1BB Jurkat cell line. […] The cells were washed x3 with staining buffer. A Goat F(ab′)2 anti-human IgG-Fc PE secondary antibody was added to the cells and the plate was incubated for 30 min at 4° C. The cells were wash ×3 with staining buffer.

Assay [2] has as its target T1, Human CD137 on Jurkat cells. Nature of the assay: cell-based or functional assay. On the set-up: IC90; Jurkat-CD137 NFkB-luciferase, HT1080-FAP co-culture / EC90; Jurkat-CD137 NFkB-luciferase, HT1080-FAP co-culture: unit not given beside the values.
Assay [3] has the same target. Nature of the assay: cell-based or functional assay.

B1: CD137 #A1 (antibody, human IgG1, V domains shown)
VH: QVQLVQSGAEVKKPGASVKVSCKASGYTLTNYPMHWVRQAPGQRPEWMGWSNAGNGNTKYSQEFQDRVTITRDTSASTAYMELSSLRSEDMAVYYCTREGVTGGFDIWGQGTMVTVSS
VL: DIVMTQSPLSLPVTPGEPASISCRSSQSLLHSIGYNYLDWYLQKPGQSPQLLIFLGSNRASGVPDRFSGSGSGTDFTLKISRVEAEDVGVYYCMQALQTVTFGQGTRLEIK
notes: human IgG1 KO (L234A/L235A)/kappa chimeric IgG
For B1, the binding result in assay [1] was “binds”.

B2: CD137 #A2 (antibody, human IgG1, V domains shown)
VH: QVQLVQSGADVKKPGASVRVSCKASGYTFTSYPIHWVRQAPGHRLEWMGWSNAGIGNAKYSQEFQGRVTITRDTSASTAYMDLSSLTSEDLAVYYCAREGVAGAFDIWGQGTMVTVSA
VL: DIVMTQSPLSLPVTPGEPASISCRSSQNLLHSNGYNYLDWYLHKPGQSPQLLIYLGSIRASGVPDRFSGSESGTDFTLKISRVEAEDVGIYYCMQPLQIPYTFGQGTKLELK
notes: as for B1
Regarding B2, in assay [1], the binding result is given as “binds”.

B3: CD137 #4 (B21.V25) + FAP #5 (C3 VK1/VH4) (bispecific antibody, human IgG1, kappa, L234A L235A)
heavy: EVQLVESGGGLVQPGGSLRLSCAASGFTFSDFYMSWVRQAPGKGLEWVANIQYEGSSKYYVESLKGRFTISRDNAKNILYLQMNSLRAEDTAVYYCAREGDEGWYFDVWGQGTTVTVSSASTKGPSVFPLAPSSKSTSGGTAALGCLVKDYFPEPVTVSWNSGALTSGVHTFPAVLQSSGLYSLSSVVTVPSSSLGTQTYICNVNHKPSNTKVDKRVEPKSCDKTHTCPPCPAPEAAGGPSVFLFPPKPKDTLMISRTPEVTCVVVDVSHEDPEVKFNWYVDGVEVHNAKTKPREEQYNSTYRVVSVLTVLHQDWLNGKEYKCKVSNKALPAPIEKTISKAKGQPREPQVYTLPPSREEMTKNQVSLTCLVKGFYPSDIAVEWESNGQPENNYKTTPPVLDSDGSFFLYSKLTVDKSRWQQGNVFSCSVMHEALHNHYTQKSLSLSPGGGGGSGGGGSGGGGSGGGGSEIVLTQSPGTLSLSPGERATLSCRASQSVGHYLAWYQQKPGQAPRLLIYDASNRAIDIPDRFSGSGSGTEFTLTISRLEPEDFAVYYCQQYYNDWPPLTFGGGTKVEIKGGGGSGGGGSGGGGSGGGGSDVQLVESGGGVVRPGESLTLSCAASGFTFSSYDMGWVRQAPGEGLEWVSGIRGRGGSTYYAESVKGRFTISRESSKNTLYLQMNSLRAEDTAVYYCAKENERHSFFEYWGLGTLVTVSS
light: DIQMTQSPSSLSASVGDRVTITCRASQSISTAVAWYQQKPGKAPKLLIYAASYLYSGVPSRFSGSGSGTDFTLTISSLQPEDFAVYYCQQHYSNPWTFGQGTKLEIKRTVAAPSVFIFPPSDEQLKSGTASVVCLLNNFYPREAKVQWKVDNALQSGNSQESVTEQDSKDSTYSLSSTLTLSKADYEKHKVYACEVTHQGLSSPVTKSFNRGEC
On to B3, for which, in assay [2], the “EC90; Jurkat-CD137 NFkB-luciferase, HT1080-FAP co-culture” value came out at 1.38; the “IC90; Jurkat-CD137 NFkB-luciferase, HT1080-FAP co-culture” value stood at 77.8; the “Total AUC; Jurkat-CD137 NFkB-luciferase, HT1080-FAP co-culture” value is 3e+06. In addition, in assay [3], the “Average EC50; Jurkat-CD137 NFkB-luciferase, HT1080-FAP co-culture” value was 0.175 nM; the “Average EC90; Jurkat-CD137 NFkB-luciferase, HT1080-FAP co-culture” value is 1.25 nM; the “Average IC50; Jurkat-CD137 NFkB-luciferase, HT1080-FAP co-culture” value turned out to be 559 nM; the “Average IC90; Jurkat-CD137 NFkB-luciferase, HT1080-FAP co-culture” value came out at 98.6 nM. In addition, in assay [3], the “Ratio IC50/EC50; Jurkat-CD137 NFkB-luciferase, HT1080-FAP co-culture” value came to 3190 and the “Ratio IC90/EC90; Jurkat-CD137 NFkB-luciferase, HT1080-FAP co-culture” value came out at 79.

B4: CD137 #2 (B21.V16) + FAP #5 (C3 VK1/VH4) (bispecific antibody, human IgG1, kappa, L234A L235A)
heavy: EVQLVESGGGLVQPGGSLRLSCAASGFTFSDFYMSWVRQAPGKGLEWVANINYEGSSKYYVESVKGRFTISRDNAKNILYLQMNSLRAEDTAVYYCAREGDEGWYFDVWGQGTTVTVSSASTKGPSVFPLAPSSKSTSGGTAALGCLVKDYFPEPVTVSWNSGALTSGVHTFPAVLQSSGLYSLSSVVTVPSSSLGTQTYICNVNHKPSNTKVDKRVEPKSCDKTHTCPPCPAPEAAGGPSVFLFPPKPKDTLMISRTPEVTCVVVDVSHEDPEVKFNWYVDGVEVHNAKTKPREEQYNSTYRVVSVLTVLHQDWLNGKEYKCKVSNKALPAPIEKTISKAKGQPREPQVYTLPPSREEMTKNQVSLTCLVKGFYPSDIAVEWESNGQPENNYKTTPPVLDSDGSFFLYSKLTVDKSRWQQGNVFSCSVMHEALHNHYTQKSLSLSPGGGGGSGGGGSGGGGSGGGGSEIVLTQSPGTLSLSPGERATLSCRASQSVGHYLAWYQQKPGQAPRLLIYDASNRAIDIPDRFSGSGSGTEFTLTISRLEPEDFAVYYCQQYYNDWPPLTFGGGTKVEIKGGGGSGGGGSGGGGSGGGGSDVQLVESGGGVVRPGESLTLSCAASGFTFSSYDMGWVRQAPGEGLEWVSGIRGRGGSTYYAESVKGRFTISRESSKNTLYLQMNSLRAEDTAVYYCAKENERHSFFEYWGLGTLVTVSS
light: B3 light with R24K, S28D, T31S, A50S, Y53S, L54R, S56T
B4: in assay [2], the “EC90; Jurkat-CD137 NFkB-luciferase, HT1080-FAP co-culture” value amounted to 0.87; the “IC90; Jurkat-CD137 NFkB-luciferase, HT1080-FAP co-culture” value came to 74.3; the “Total AUC; Jurkat-CD137 NFkB-luciferase, HT1080-FAP co-culture” value came to 3.6e+06. For the same molecule, in assay [3], the “Average EC50; Jurkat-CD137 NFkB-luciferase, HT1080-FAP co-culture” value was 0.233 nM; the “Average EC90; Jurkat-CD137 NFkB-luciferase, HT1080-FAP co-culture” value was 2.23 nM; the “Average IC50; Jurkat-CD137 NFkB-luciferase, HT1080-FAP co-culture” value was found to be 538 nM; the “Average IC90; Jurkat-CD137 NFkB-luciferase, HT1080-FAP co-culture” value stood at 110 nM. Besides, in assay [3], the “Ratio IC50/EC50; Jurkat-CD137 NFkB-luciferase, HT1080-FAP co-culture” value was 2300 and the “Ratio IC90/EC90; Jurkat-CD137 NFkB-luciferase, HT1080-FAP co-culture” value was 49.4.

B5: CD137 #A30 (antibody, human IgG1, V domains shown)
VH: QVQLQQPGTEFVKPGASVKLSCKASDYTFTSHWMHWVKQRPGQGLEWIGEIDPSDSYTNYIQKFKGKATLTVDKSSSTAYMQLSSLTSEDSAVYYCARGDYYGTRYFDVWGAGTTVIVSS
VL: DIVMTQSPSSLSVSAGEKVTMSCKSGQNLFNSGNQKNYLAWYQQKPGQPPRLLIYGASTRESGVPDRFTGSGSGTDFTLTISSVQAEDLAVYYCQNDQSYPPTFGAGTKLELK
notes: as for B1
Turning to B5, in assay [1], the binding result is reported as “binds”.

B6: CD137 #A4 (antibody, human IgG1, V domains shown)
VH: DVQLQESGPGLVKPSQSLSLTCTVTGYSITSDYVWNWIRQFPGNKLEWMGYISYSGGTRYNPSLKSRISITRDTSENQFFLQLDSVTTEDTATFYCARSGNWDWYFDAWGTGTTVTVSS
VL: DIQMTQTTSSLSASLGDRVTISCRPSQDISNYLDWYQQKPDGTVKLLIYSTSRLPSGVPSRFSGSGSGTDYSLTISNMEQEDIATYFCQQGNTFPPTFGGGTKLEIK
notes: as for B1
In the case of B6, the binding result in assay [1] is given as “binds”.

B7: CD137 #A12 (antibody, human IgG1, V domains shown)
VH: QVQLKQSGPGLVQPSQSLSITCTVSGFSLTSHGVHWVRQSPGKGLEWLGVIWSGGYTDYNAAFISRLSISTDNSKSHIFFKMNSLQADDTAIYYCARNGASYYYAMDYWGQGTSVTVSS
VL: DIVMTQAAFSNPVTLGISASISCRSSKSLLHSNGITYLYWYLQKPGQSPQLLIYQMSNLASGVPDRFSSSGSGTDFTLRISRVEAEDVGVYYCAQNLELPLTFGAGTKLELK
notes: human IgG1 KO (L234A/L235A)/kappa chimeric IgG; also called CD137 #Al2
Take B7: the binding result in assay [1] was “binds”.

Source of the values: patent publication US20250136720A1 (Boehringer Ingelheim, published 2025).
